Results taken from patent publication US20200277374A1 (Alector, published 2020).
Substitutions are numbered along the chain they refer to.

B1: anti-Siglec-7 antibody 4A1 (antibody, V domains shown)
VH: QVQLQQSGSELRSPGSSVKLSCKDFDSEVFPITYMNWVRQKPGHGFEWIGDILPSIGRTMYGEKFEDKATLDADTVSNTAYLELNSLTSEDSAIYYCARSEGYLLAYWGQGTLVTVSA
VL: DVVMTQTPLSLPVSLGDQASISCRSSQSLVHSTGNIYLHWYLQKPGQSPKLLIYKVSNRFZGVPDRFSGSGSGTDFTLKISRVEAEDLGVYFCSQNTHVPYTFGGGTKLEIK
notes: Variable domains assembled from FR and CDR entries
B2: anti-Siglec-7 antibody 7F12 (antibody, V domains shown)
VH: B1 VH
VL: B1 VL with V3L, I36T, Z61S, S72A
notes: as for B1
B3: anti-Siglec-7 antibody 4E3 (antibody, V domains shown)
VH: EVQLVESGGALVKPGGSLKISCAVSGFIFSNYDMSWVRQNPEKRLEWVATISSGGGYTYYPDSVKGRFTISRDNAKNALYLQMSSLRSEDTALYYCTRHGYGNYDWYFDVWGAGATVTVSS
VL: QIVLTQSPAILSASPGEKVTMTCSANSSFTYMYWYQQKPGSSPRLLIFDTSNLASGVPIRFSGSGSGTSYSLTISRMEAEDTATYYCQQWSSSPLTFGAGTKLELK
notes: VL FR1 there holds a Z); also called S7-4E3; mAb S7-4E3

Assays:
[1] = target: T1, human Siglec-7 expressed on human cells (primary monocytes, dendritic cells, macrophages, NK cells, … (human, UniProt Q9Y286 19-467)); assay: FACS, human primary dendritic cells, 10 ug/ml mAb
T1 construct: Endogenous receptor on cells; also called Siglec-7 receptor
Method: (§1) Initial characterization of Siglec-7 antibodies involved determining their ability to bind Siglec-7 expressed on human primary monocytes, human primary macrophages, human primary dendritic cells, human primary neutrophils, and human primary natural killer (NK) cells. Cells were harvested, plated at 10⁶/ml in a 96 well plate, and incubated in 100 ul PBS containing 2% FBS, 2 mM EDTA and 10 μg/ml Mab and Fc blocking reagent for 1 hour in ice. Cells were washed twice and incubated in 100 ul PBS containing 2% FBS, 2 mM EDTA and 5 ug/ml PE-conjugated secondary antibody for 30 minutes on ice. Cells were washed twice in cold PBS and analyze by flow cytometry on a BD FACS Canto. Data analysis and calculation of MFI values was performed with FlowJo (TreeStar) software version 10.0.7.
(§2) Percent positive binding and mean fluorescent intensity (MFI) values for cell types bound by Siglec-7 antibodies are listed in Table 4A. Binding is compared to an isotype control. The antibodies bind to human primary monocytes, human primary dendritic cells, and human primary macrophages. In Table 4A, “Buffer” refers to cells that were treated only with the PBS buffer described supra; “Secondary Ab” refers to cells that were treated only with the PE-conjugated secondary antibody; “mIgG1,” “mIgG2a,” and “mIgG2b” refer to isotype control antibodies; and “RDS7” refers to commerically available anti-Siglec-7 antibody Mab1138 (R&D Systems; Cat. No. MAB 1138).

[2] = target: T2, Histidine-tagged human Siglec-7 (NovoProtein) (human, UniProt Q9Y286 19-357, limits assumed); assay: SPR (BiaCore T200, 25 C), antibody captured on anti-mouse IgG, Siglec-7-His 35 nM, single-concentration kinetics
T2 construct: Bought protein; also called purified Siglec-7-his tagged protein; not shown: histidine tag
Method: (§3) SPR data was collected at a rate of 10 Hz at 25′ C on a BiaCore T200 instrument. Data analysis was performed using BiaCore T200 Evaluation Software, version 2.0. HBS-EP+ (100 mM HEPES, 1.5 M NaCl, 30 mM EDTA, 0.5% v/v Surfactant P20, pH 7.4) was used as running buffer and for preparing reagents.
(§4) Mouse-derived antibodies (25 nM) against Siglec-7 were captured (60 s contact time, 30 μL/min flow rate, 0 s stabilization time) on a CM5 sensor chip (GE Healthcare) immobilized with anti-mouse IgG. Histidine-tagged human Siglec-7 (NovoProtein) was then flowed over the captured anti-Siglec-7 surface (120 s contact time, 30 μL/min flow rate, 300 s dissociation time). Concentration of antigen ranged from 5 nM to 100 nM, depending on information obtained from an initial screen. Duplicate single-concentration trials were performed and bracketed by a blank (0 nM antigen) sample. The chip surface was regenerated in between cycles using 10 mM glycine-HCl, pH1.7 (60 s contact time, 30 μL/min flow rate, 60 s stabilization time). The resulting SPR signal was obtained as the difference in response from measurements performed on a blank flow cell.
(§5) Affinity constants (KD) were calculated from the ratio kd/kₐ. For one antibody (clone 1E8), we validated the single-concentration analysis with a multiple-concentration approach (five concentrations of antigen used, plus one blank).

[3] = target: T1, human Siglec-7 expressed on human cells …; assay: FACS, human primary monocytes, 10 ug/ml mAb
Method: as §1, §2

[4] = target: T1, human Siglec-7 expressed on human cells …; assay: cell-based or functional assay
[5] = target: T1, human Siglec-7 expressed on human cells …; assay: cell-based or functional assay; remark: listed apart in the source
[6] = target: T3, Siglec-7-Fc (plate immobilized) (human, UniProt Q9Y286 19-357, limits assumed); assay: RBC solid adhesion assay, plate-coated Siglec-7-Fc, antibody 0.5 or 1.0 ug/ml; % of RBC binding without antibody
T3 construct: also called Siglec-7-Fc protein; immobilized Siglec-7; not shown: Fc part
Outline: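 Plates coated overnight at RT with 5 μg/ml Siglec-7-Fc and blocked in PBS with BSA and 1 mM CaCl₂. Antibody (0.5 or 1.0 μg/ml) bound 1 h at RT, then RBCs (3.0×10⁶ cells/ml) added for 1 h at RT. Bound RBCs lysed and detected by peroxidase at 450 nm, expressed as % of binding without antibody.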

[7] = target: T1, human Siglec-7 expressed on human cells …; assay: FACS, human primary macrophages, 10 ug/ml mAb
Method: as §1, §2

[8] = target: T2, Histidine-tagged human Siglec-7 …; assay: SPR (BiaCore T200, 25 C), antibody captured on anti-mouse IgG, Siglec-7-His 25 nM, single-concentration kinetics
Method: as §3, §4, §5

[9] = target: T1, human Siglec-7 expressed on human cells …; assay: cell-based or functional assay; remark: listed apart in the source
[10] = target: T1, human Siglec-7 expressed on human cells …; assay: FACS titration on primary human dendritic cells, donor 358, 4 C
Method: (§6) Two Siglec-7 antibodies, 4E3 and 10B5, were titrated 2-fold for a 12-point curve with a concentration range of 6.67-0.00325 nM to assess binding and calculate half-maximal concentration (EC₅₀) for binding to primary human dendritic cells (FIG. 5B). Antibodies were serially diluted and incubated with cells in PBS with 1% BSA, 1 mM EDTA for 1 hour on ice (4° C.). Cells were pelleted and resuspended with goat anti-mouse secondary antibody conjugated with APC (BD Biosciences) at a 1:200 dilution in buffer. Secondary detection antibody was incubated for 30 minutes on ice (4° C.), then cells were washed 3 times in buffer before analyzing on a BD FACS Canto for APC MR. Data were analyzed with FlowJo Software (TreeStar).

[11] = target: T1, human Siglec-7 expressed on human cells …; assay: FACS titration on primary human dendritic cells, donor 359, 4 C
Method: as §6

T1 sequence (Q9Y286 19-467): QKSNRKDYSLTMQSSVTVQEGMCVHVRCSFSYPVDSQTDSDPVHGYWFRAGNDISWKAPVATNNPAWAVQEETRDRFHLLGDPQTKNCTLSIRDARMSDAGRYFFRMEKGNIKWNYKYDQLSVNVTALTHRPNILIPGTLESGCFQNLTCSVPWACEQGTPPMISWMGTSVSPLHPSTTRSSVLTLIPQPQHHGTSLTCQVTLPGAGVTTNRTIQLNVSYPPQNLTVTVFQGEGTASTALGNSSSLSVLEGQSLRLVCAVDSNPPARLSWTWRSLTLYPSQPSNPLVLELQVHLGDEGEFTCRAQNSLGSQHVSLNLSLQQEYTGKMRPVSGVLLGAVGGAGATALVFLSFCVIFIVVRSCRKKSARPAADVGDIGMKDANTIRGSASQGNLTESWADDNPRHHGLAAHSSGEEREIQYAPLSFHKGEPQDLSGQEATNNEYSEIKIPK
T2 sequence (Q9Y286 19-357 limits assumed): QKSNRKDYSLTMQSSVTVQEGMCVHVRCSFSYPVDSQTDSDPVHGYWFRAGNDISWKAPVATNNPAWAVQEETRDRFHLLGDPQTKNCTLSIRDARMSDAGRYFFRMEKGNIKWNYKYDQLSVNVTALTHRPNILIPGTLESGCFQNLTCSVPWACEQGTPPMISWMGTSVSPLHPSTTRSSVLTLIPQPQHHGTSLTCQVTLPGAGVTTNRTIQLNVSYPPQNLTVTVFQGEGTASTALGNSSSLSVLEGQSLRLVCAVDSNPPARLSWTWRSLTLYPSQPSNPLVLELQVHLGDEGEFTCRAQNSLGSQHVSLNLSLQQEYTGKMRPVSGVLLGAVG
T3 sequence (Q9Y286 19-357 limits assumed): as above

| Binder | % Positive [1] [%] | MFI [1] | Kd [2] [nM] | % Positive [3] [%] | MFI [3] | Percent Siglec-7 Surface Expression, DCs [4] [%] | Percent Siglec-7 Surface Expression, Monocytes [4] [%] | Percent Siglec-7 Surface Expression, U937 cells [4] [%] | Percent Siglec-7 Surface Expression, Macrophages [5] [%] | Percent Siglec-7 Surface Expression, Microglia [5] [%] | Percent Siglec-7 Surface Expression, NK cells [5] [%] | Percent RBC Binding to Siglec-7 [6] [%] | % Positive [7] [%] | MFI [7] | further results |
| --- | --- | --- | --- | --- | --- | --- | --- | --- | --- | --- | --- | --- | --- | --- | --- |
| B1 | 99.7 | 5450 | 0.3 | 99.4 | 486 | 99.6 | 39.8 | 89.5 | 13.1 | 26.3 | 132 | 11.2 | 99.3 | 14600 | – |
| B2 | 99.7 | 5000 | 0.4 | 99.3 | 472 | 96.9 | 39 | 86.3 | 13.1 | 28.1 | 124 | 7.9 | 99.3 | 12300 | – |
| B3 | 99.7 | 2650 | – | 98.6 | 362 | 11.2 | 15.1 | 30.8 | 4.2 | 20.9 | 31.2 | 20.2 | 99.6 | 4150 | Kd [8]: 0.3 nM; EC50 of Siglec-7 cell surface downregulation, primary human dendritic cells, donor 362 [9]: 0.114 nM; EC50 of Siglec-7 cell surface downregulation, primary human dendritic cells, donor 363 [9]: 0.095 nM; EC50 of Siglec-7 cell surface downregulation, primary human dendritic cells, donor 364 [9]: 0.0499 nM; EC50 of Siglec-7 cell surface downregulation, primary human dendritic cells, donor 365 [9]: 0.0336 nM; EC50 [10]: 0.336 nM; EC50 [11]: 0.301 nM |
